PMC5812274 (Science signaling, 2017)

Target: large-conductance Ca2+-activated potassium (BK) channel pore-forming α subunit (rat (endogenous in cerebral artery …, UniProt Q62976 1-1209))
Assay: FRET or BRET

large-conductance Ca2+-activated potassium (BK) channel pore-forming α subunit (rat, sequence (Q62976 whole entry): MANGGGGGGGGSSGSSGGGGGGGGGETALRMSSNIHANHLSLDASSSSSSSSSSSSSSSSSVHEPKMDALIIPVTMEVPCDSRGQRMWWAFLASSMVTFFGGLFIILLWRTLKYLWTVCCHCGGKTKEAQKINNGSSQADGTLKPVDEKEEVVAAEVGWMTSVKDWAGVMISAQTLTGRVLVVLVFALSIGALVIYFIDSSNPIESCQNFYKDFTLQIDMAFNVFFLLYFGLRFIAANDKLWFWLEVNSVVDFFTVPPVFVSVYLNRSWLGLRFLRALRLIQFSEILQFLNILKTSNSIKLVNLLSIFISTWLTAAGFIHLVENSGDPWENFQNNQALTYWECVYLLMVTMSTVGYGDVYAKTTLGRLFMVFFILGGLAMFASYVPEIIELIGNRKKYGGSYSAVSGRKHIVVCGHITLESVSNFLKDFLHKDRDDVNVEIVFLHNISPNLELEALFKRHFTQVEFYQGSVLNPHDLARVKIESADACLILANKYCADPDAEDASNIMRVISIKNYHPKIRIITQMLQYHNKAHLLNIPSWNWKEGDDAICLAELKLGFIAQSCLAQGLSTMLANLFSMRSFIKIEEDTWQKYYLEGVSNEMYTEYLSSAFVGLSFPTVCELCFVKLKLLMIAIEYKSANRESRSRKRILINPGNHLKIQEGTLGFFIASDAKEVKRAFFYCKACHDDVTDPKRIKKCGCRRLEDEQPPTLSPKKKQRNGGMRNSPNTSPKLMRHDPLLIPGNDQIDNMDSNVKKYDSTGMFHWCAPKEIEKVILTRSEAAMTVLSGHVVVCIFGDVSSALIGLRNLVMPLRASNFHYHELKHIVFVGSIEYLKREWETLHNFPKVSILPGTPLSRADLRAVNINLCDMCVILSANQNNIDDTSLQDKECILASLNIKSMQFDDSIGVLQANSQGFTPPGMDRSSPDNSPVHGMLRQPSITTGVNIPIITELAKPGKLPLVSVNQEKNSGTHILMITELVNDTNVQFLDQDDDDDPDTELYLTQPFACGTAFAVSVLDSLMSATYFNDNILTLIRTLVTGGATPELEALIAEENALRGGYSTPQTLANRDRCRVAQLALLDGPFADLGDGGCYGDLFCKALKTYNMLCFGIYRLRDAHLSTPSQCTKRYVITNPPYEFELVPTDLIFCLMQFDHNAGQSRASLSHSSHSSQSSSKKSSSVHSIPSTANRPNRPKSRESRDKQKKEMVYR

B1: BK channel auxiliary β1 subunit (natural protein, UniProt P97678 1-191, looked up)
chain: MGKKLVMAQKRGETRALCLGVAMVVCAAITYYILGTTVLPLYQKSVWTQESTCHLVETNIKDQEELEGRKVPQYPCLWVNVSAVGRWAMLYHTEDTRDQNQQCSYIPRNLDNYQTALVDVKKVRANFYKHHNFYCFSAPQVNETSVVYQRLYGPQILLFSFFWPTFLLTGGLLIIAMVKLNRSLSVLAAQK
For B1, the “fold increase of normalized FRET, 60 mM K+ against 6 mM K+” value was roughly 3.4 fold.
